B1: Tubulin beta-4A chain (Homo sapiens), P04350 (parent)
chain: MREIVHLQAGQCGNQIGAKFWEVISDEHGIDPTGTYHGDSDLQLERINVYYNEATGGNYVPRAVLVDLEPGTMDSVRSGPFGQIFRPDNFVFGQSGAGNNWAKGHYTEGAELVDAVLDVVRKEAESCDCLQGFQLTHSLGGGTGSGMGTLLISKIREEFPDRIMNTFSVVPSPKVSDTVVEPYNATLSVHQLVENTDETYCIDNEALYDICFRTLKLTTPTYGDLNHLVSATMSGVTTCLRFPGQLNADLRKLAVNMVPFPRLHFFMPGFAPLTSRGSQQYRALTVPELTQQMFDAKNMMAACDPRHGRYLTVAAVFRGRMSMKEVDEQMLSVQSKNSSYFVEWIPNNVKTAVCDIPPRGLKMAATFIGNSTAIQELFKRISEQFTAMFRRKAFLHWYTGEGMDEMEFTEAESNMNDLVSEYQQYQDATAEEGEFEEEAEEEVA
B2: Tubulin beta chain (Homo sapiens), P07437 (parent)
chain: MREIVHIQAGQCGNQIGAKFWEVISDEHGIDPTGTYHGDSDLQLDRISVYYNEATGGKYVPRAILVDLEPGTMDSVRSGPFGQIFRPDNFVFGQSGAGNNWAKGHYTEGAELVDSVLDVVRKEAESCDCLQGFQLTHSLGGGTGSGMGTLLISKIREEYPDRIMNTFSVVPSPKVSDTVVEPYNATLSVHQLVENTDETYCIDNEALYDICFRTLKLTTPTYGDLNHLVSATMSGVTTCLRFPGQLNADLRKLAVNMVPFPRLHFFMPGFAPLTSRGSQQYRALTVPELTQQVFDAKNMMAACDPRHGRYLTVAAVFRGRMSMKEVDEQMLNVQNKNSSYFVEWIPNNVKTAVCDIPPRGLKMAVTFIGNSTAIQELFKRISEQFTAMFRRKAFLHWYTGEGMDEMEFTEAESNMNDLVSEYQQYQDATAEEEEDFGEEAEEEA
B3: Tubulin beta-6 chain (Homo sapiens), Q9BUF5 (parent)
chain: MREIVHIQAGQCGNQIGTKFWEVISDEHGIDPAGGYVGDSALQLERINVYYNESSSQKYVPRAALVDLEPGTMDSVRSGPFGQLFRPDNFIFGQTGAGNNWAKGHYTEGAELVDAVLDVVRKECEHCDCLQGFQLTHSLGGGTGSGMGTLLISKIREEFPDRIMNTFSVMPSPKVSDTVVEPYNATLSVHQLVENTDETYCIDNEALYDICFRTLKLTTPTYGDLNHLVSATMSGVTTSLRFPGQLNADLRKLAVNMVPFPRLHFFMPGFAPLTSRGSQQYRALTVPELTQQMFDARNMMAACDPRHGRYLTVATVFRGPMSMKEVDEQMLAIQSKNSSYFVEWIPNNVKVAVCDIPPRGLKMASTFIGNSTAIQELFKRISEQFSAMFRRKAFLHWFTGEGMDEMEFTEAESNMNDLVSEYQQYQDATANDGEEAFEDEEEEIDG

Variants of: B1
Settings: with lrrk2_human LRRK2, Q5S007
lrrk2_human LRRK2, Q5S007, sequence (Q5S007 whole entry): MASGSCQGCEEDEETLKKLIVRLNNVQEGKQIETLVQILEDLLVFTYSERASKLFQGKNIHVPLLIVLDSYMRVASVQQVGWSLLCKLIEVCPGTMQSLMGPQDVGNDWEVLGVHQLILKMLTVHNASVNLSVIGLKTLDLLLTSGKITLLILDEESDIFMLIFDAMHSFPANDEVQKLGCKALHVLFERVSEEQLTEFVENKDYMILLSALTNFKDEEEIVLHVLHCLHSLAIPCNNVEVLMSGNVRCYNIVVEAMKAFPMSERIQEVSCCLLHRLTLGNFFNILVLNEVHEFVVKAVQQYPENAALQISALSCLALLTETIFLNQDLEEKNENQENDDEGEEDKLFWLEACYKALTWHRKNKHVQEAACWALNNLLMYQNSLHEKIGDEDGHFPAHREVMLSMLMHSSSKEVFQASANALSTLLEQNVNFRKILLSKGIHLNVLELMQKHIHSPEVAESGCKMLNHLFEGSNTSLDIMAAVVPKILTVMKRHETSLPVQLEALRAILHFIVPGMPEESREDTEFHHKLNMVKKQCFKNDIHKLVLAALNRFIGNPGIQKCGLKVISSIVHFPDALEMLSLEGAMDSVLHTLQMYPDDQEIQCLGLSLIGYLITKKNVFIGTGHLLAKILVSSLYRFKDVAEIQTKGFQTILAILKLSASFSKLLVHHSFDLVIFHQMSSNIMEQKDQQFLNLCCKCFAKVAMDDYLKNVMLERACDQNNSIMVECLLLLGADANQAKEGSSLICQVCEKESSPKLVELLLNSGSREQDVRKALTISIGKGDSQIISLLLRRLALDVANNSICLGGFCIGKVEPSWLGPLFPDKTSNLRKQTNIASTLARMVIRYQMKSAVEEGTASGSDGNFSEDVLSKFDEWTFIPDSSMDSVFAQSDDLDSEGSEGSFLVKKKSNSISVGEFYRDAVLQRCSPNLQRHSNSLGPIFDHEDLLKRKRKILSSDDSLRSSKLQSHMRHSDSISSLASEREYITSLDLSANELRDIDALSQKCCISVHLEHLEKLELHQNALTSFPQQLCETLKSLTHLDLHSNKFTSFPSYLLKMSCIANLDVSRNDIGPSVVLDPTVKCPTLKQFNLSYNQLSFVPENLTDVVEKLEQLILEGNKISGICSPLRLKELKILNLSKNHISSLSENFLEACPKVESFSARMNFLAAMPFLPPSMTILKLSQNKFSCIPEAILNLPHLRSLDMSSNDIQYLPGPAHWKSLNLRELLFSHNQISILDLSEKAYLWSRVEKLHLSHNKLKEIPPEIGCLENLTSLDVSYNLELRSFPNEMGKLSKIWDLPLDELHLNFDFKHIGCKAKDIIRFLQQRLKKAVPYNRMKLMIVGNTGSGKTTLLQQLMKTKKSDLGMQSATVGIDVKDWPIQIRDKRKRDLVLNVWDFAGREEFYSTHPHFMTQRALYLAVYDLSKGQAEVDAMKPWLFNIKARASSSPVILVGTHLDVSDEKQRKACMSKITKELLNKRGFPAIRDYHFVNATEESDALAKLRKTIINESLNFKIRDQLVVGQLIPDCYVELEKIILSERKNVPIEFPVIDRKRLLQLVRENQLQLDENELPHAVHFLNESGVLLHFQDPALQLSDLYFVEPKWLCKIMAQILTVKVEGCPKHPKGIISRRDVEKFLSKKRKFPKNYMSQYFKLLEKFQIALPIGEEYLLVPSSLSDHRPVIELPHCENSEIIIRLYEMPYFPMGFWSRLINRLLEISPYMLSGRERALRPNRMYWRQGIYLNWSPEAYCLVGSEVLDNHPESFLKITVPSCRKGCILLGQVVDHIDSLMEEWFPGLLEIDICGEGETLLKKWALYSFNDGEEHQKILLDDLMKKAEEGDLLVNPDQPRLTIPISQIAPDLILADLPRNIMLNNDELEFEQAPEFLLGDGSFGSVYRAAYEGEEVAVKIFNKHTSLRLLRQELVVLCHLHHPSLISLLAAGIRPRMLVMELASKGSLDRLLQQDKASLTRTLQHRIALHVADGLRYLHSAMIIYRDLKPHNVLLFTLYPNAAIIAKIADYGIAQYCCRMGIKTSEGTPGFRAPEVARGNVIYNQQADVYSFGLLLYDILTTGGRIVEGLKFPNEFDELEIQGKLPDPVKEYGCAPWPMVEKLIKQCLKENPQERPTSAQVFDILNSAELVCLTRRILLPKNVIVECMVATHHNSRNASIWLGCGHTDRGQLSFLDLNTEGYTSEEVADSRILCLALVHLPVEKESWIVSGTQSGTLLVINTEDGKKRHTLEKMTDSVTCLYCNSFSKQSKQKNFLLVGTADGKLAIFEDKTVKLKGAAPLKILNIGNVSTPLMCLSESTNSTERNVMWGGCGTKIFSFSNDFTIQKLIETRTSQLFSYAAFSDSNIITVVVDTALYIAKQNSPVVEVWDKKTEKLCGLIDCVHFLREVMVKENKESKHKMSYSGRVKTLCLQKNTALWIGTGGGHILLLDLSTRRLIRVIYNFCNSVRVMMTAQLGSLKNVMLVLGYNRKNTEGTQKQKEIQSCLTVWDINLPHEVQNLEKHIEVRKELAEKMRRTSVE

Row | effect of a mutation on the interaction | Variant
1 | disrupting interaction | A364S
2 | disrupting interaction | A364E
3 | disrupting interaction | A364D

Variants of: B2
Settings: with lrrk2_human LRRK2, Q5S007

Row | effect of a mutation on the interaction | Variant
4 | disrupting interaction | A364D
5 | disrupting interaction | A364S
6 | disrupting interaction | A364E

Variants of: B3
Settings: with lrrk2_human LRRK2, Q5S007

Row | effect of a mutation on the interaction | Variant
7 | disrupting interaction | P320R;K362S
8 | disrupting interaction | P320R;A364S
